# Assay results published in US11833164B2, “Methods of treating Fabry disease in patients having a mutation in the GLA gene” (Amicus Therapeutics, Inc., priority 2019, dated 2023).
# Test system: mutant form of α-Gal A expressed in HEK-293 cells
# Assay: HEK assay (GLP HEK / Migalastat Amenability Assay): α-Gal A activity in lysates of transiently transfected HEK-293 cells incubated with or without 10 μM migalastat
# Format: cell-based, human
# Details: for Absolute increase (% WT) / Relative increase: 10 μM migalastat versus baseline; for Baseline α-Gal A activity (% WT): absence of migalastat; for Baseline α-Gal A activity (% WT) / 10 μM migalastat α-Gal A activity (% WT): percentage of baseline wild-type α-Gal A activity; for Baseline α-Gal A activity (% WT) / Baseline α-Gal A activity / 10 μM migalastat α-Gal A activity / 10 μM migalastat α-Gal A activity (% WT): mean ± SEM; for Baseline α-Gal A activity / 10 μM migalastat α-Gal A activity: lysates of HEK-293 cells transiently transfected with the mutant form; for Baseline α-Gal A activity: incubated 5 days in absence of migalastat; for 10 μM migalastat α-Gal A activity: incubated 5 days with 10 μM migalastat; for 10 μM migalastat α-Gal A activity (% WT): with 10 μM migalastat, 5 days
# Method in brief: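 HEK-293 cells transiently transfected with mutant α-Gal A and incubated with or without 10 μM migalastat; lysate activity given as nmol free 4-MU released per mg protein per hour. Values are mean±SEM.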
Molecule,Absolute increase (% WT),Relative increase,Baseline α-Gal A activity (% WT),Baseline α-Gal A activity [nmol/mg/h],10 μM migalastat α-Gal A activity [nmol/mg/h],10 μM migalastat α-Gal A activity (% WT)
Y329D (protein) MQLRNPELHLGCALALRFLALVSWDIPGARALDNGLARTPTMGWLHWERFMCNLDCQEEPDSCISEKLFMEMAELMVSEGWKDAGYEYLCIDDCWMAPQRDSEGRLQADPQRFPHGIRQLANYVHSKGLKLGIYADVGNKTCAGFPGSFGYYDIDAQTFADWGVDLLKFDGCYCDSLENLADGYKHMSLALNRTGRSIVYSCEWPLYMWPFQKPNYTEIRQYCNHWRNFADIDDSWKSIKSILDWTSFNQERIVDVAGPGGWNDPDMLVIGNFGLSWNQQVTQMALWAIMAAPLFMSNDLRHISPQAKALLQDKDVIAINQDPLGKQGDQLRQGDNFEVWERPLSGLAWAVAMINRQEIGGPRSYTIAVASLGKGVACNPACFITQLLPVKRKLGFYEWTSRLRSHINPTGTVLLQLENTMQMSLKDLL,12.5,3.9,4.2 ± 0.2,1249 ± 66,4917 ± 181,16.7 ± 0.6
L331P (protein) MQLRNPELHLGCALALRFLALVSWDIPGARALDNGLARTPTMGWLHWERFMCNLDCQEEPDSCISEKLFMEMAELMVSEGWKDAGYEYLCIDDCWMAPQRDSEGRLQADPQRFPHGIRQLANYVHSKGLKLGIYADVGNKTCAGFPGSFGYYDIDAQTFADWGVDLLKFDGCYCDSLENLADGYKHMSLALNRTGRSIVYSCEWPLYMWPFQKPNYTEIRQYCNHWRNFADIDDSWKSIKSILDWTSFNQERIVDVAGPGGWNDPDMLVIGNFGLSWNQQVTQMALWAIMAAPLFMSNDLRHISPQAKALLQDKDVIAINQDPLGKQGYQPRQGDNFEVWERPLSGLAWAVAMINRQEIGGPRSYTIAVASLGKGVACNPACFITQLLPVKRKLGFYEWTSRLRSHINPTGTVLLQLENTMQMSLKDLL,3.1,6.5,0.6 ± 0.1,157 ± 20,1029 ± 32,3.7 ± 0.2
Q330K (protein) MQLRNPELHLGCALALRFLALVSWDIPGARALDNGLARTPTMGWLHWERFMCNLDCQEEPDSCISEKLFMEMAELMVSEGWKDAGYEYLCIDDCWMAPQRDSEGRLQADPQRFPHGIRQLANYVHSKGLKLGIYADVGNKTCAGFPGSFGYYDIDAQTFADWGVDLLKFDGCYCDSLENLADGYKHMSLALNRTGRSIVYSCEWPLYMWPFQKPNYTEIRQYCNHWRNFADIDDSWKSIKSILDWTSFNQERIVDVAGPGGWNDPDMLVIGNFGLSWNQQVTQMALWAIMAAPLFMSNDLRHISPQAKALLQDKDVIAINQDPLGKQGYKLRQGDNFEVWERPLSGLAWAVAMINRQEIGGPRSYTIAVASLGKGVACNPACFITQLLPVKRKLGFYEWTSRLRSHINPTGTVLLQLENTMQMSLKDLL,21.1,1.3,71 ± 2.7,20289 ± 720,26149 ± 1074,92.1 ± 4.2
Y329F (protein) MQLRNPELHLGCALALRFLALVSWDIPGARALDNGLARTPTMGWLHWERFMCNLDCQEEPDSCISEKLFMEMAELMVSEGWKDAGYEYLCIDDCWMAPQRDSEGRLQADPQRFPHGIRQLANYVHSKGLKLGIYADVGNKTCAGFPGSFGYYDIDAQTFADWGVDLLKFDGCYCDSLENLADGYKHMSLALNRTGRSIVYSCEWPLYMWPFQKPNYTEIRQYCNHWRNFADIDDSWKSIKSILDWTSFNQERIVDVAGPGGWNDPDMLVIGNFGLSWNQQVTQMALWAIMAAPLFMSNDLRHISPQAKALLQDKDVIAINQDPLGKQGFQLRQGDNFEVWERPLSGLAWAVAMINRQEIGGPRSYTIAVASLGKGVACNPACFITQLLPVKRKLGFYEWTSRLRSHINPTGTVLLQLENTMQMSLKDLL,16.6,1.5,30.6 ± 1.5,10368 ± 646,15566 ± 603,47.1 ± 2.8
Y329H (protein) MQLRNPELHLGCALALRFLALVSWDIPGARALDNGLARTPTMGWLHWERFMCNLDCQEEPDSCISEKLFMEMAELMVSEGWKDAGYEYLCIDDCWMAPQRDSEGRLQADPQRFPHGIRQLANYVHSKGLKLGIYADVGNKTCAGFPGSFGYYDIDAQTFADWGVDLLKFDGCYCDSLENLADGYKHMSLALNRTGRSIVYSCEWPLYMWPFQKPNYTEIRQYCNHWRNFADIDDSWKSIKSILDWTSFNQERIVDVAGPGGWNDPDMLVIGNFGLSWNQQVTQMALWAIMAAPLFMSNDLRHISPQAKALLQDKDVIAINQDPLGKQGHQLRQGDNFEVWERPLSGLAWAVAMINRQEIGGPRSYTIAVASLGKGVACNPACFITQLLPVKRKLGFYEWTSRLRSHINPTGTVLLQLENTMQMSLKDLL,16.2,1.4,47.2 ± 3.8,13757 ± 963,18672 ± 772,63.4 ± 2.6
Q330H (protein) MQLRNPELHLGCALALRFLALVSWDIPGARALDNGLARTPTMGWLHWERFMCNLDCQEEPDSCISEKLFMEMAELMVSEGWKDAGYEYLCIDDCWMAPQRDSEGRLQADPQRFPHGIRQLANYVHSKGLKLGIYADVGNKTCAGFPGSFGYYDIDAQTFADWGVDLLKFDGCYCDSLENLADGYKHMSLALNRTGRSIVYSCEWPLYMWPFQKPNYTEIRQYCNHWRNFADIDDSWKSIKSILDWTSFNQERIVDVAGPGGWNDPDMLVIGNFGLSWNQQVTQMALWAIMAAPLFMSNDLRHISPQAKALLQDKDVIAINQDPLGKQGYHLRQGDNFEVWERPLSGLAWAVAMINRQEIGGPRSYTIAVASLGKGVACNPACFITQLLPVKRKLGFYEWTSRLRSHINPTGTVLLQLENTMQMSLKDLL,40.8,2.2,33.1 ± 2.8,9296 ± 649,20752 ± 592,73.9 ± 3.6
Q330E (protein) MQLRNPELHLGCALALRFLALVSWDIPGARALDNGLARTPTMGWLHWERFMCNLDCQEEPDSCISEKLFMEMAELMVSEGWKDAGYEYLCIDDCWMAPQRDSEGRLQADPQRFPHGIRQLANYVHSKGLKLGIYADVGNKTCAGFPGSFGYYDIDAQTFADWGVDLLKFDGCYCDSLENLADGYKHMSLALNRTGRSIVYSCEWPLYMWPFQKPNYTEIRQYCNHWRNFADIDDSWKSIKSILDWTSFNQERIVDVAGPGGWNDPDMLVIGNFGLSWNQQVTQMALWAIMAAPLFMSNDLRHISPQAKALLQDKDVIAINQDPLGKQGYELRQGDNFEVWERPLSGLAWAVAMINRQEIGGPRSYTIAVASLGKGVACNPACFITQLLPVKRKLGFYEWTSRLRSHINPTGTVLLQLENTMQMSLKDLL,19.9,1.7,26.4 ± 1.5,7500 ± 345,13086 ± 589,46.4 ± 2.6
L331H (protein) MQLRNPELHLGCALALRFLALVSWDIPGARALDNGLARTPTMGWLHWERFMCNLDCQEEPDSCISEKLFMEMAELMVSEGWKDAGYEYLCIDDCWMAPQRDSEGRLQADPQRFPHGIRQLANYVHSKGLKLGIYADVGNKTCAGFPGSFGYYDIDAQTFADWGVDLLKFDGCYCDSLENLADGYKHMSLALNRTGRSIVYSCEWPLYMWPFQKPNYTEIRQYCNHWRNFADIDDSWKSIKSILDWTSFNQERIVDVAGPGGWNDPDMLVIGNFGLSWNQQVTQMALWAIMAAPLFMSNDLRHISPQAKALLQDKDVIAINQDPLGKQGYQHRQGDNFEVWERPLSGLAWAVAMINRQEIGGPRSYTIAVASLGKGVACNPACFITQLLPVKRKLGFYEWTSRLRSHINPTGTVLLQLENTMQMSLKDLL,25.9,1.6,42 ± 3.2,11743 ± 634,19003 ± 791,67.9 ± 4.3
Y329N (protein) MQLRNPELHLGCALALRFLALVSWDIPGARALDNGLARTPTMGWLHWERFMCNLDCQEEPDSCISEKLFMEMAELMVSEGWKDAGYEYLCIDDCWMAPQRDSEGRLQADPQRFPHGIRQLANYVHSKGLKLGIYADVGNKTCAGFPGSFGYYDIDAQTFADWGVDLLKFDGCYCDSLENLADGYKHMSLALNRTGRSIVYSCEWPLYMWPFQKPNYTEIRQYCNHWRNFADIDDSWKSIKSILDWTSFNQERIVDVAGPGGWNDPDMLVIGNFGLSWNQQVTQMALWAIMAAPLFMSNDLRHISPQAKALLQDKDVIAINQDPLGKQGNQLRQGDNFEVWERPLSGLAWAVAMINRQEIGGPRSYTIAVASLGKGVACNPACFITQLLPVKRKLGFYEWTSRLRSHINPTGTVLLQLENTMQMSLKDLL,15.6,1.7,21.8 ± 1.5,6448 ± 436,11035 ± 429,37.4 ± 1.2
